Reference: PMC8789055, “Structural and biochemical characterization of human Schlafen 5”

What was measured:
[1] = molecular target: T1, SLFN5 1-336 (Schlafen core domain) (Homo sapiens, UniProt Q08AF3 1-336); test: fluorescence anisotropy; FA: 2x buffer 100 mM HEPES pH 8.0, 100 mM NaCl mixed 1:1 with 100 nM (final) FAM ligand, 30 min on ice; EMSA: 25 mM HEPES pH 7.0, 60 mM NaCl, 5% glycerol, 2 mM; conditions: protein: recombinant, tags: C-terminal His6
T1 sequence: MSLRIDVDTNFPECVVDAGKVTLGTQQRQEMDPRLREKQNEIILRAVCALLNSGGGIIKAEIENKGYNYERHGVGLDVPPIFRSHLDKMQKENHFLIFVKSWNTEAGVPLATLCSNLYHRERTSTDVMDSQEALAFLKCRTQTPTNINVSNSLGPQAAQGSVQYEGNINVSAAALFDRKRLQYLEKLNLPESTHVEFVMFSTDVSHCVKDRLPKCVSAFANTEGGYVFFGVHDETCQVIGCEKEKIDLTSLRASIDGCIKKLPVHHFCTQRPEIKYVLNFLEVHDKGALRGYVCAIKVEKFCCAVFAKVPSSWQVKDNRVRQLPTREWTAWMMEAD

SLFN5 full length [2] = molecular target: T2, SLFN5 full length (Homo sapiens, UniProt Q08AF3 1-891); test: competition EMSA; with tRNASer, 20 nM each; comparable affinities; FA: 2x buffer 100 mM HEPES pH 8.0, 100 mM NaCl mixed 1:1 with 100 nM (final) FAM ligand, 30 min on ice; EMSA: 25 mM HEPES pH 7.0, 60 mM NaCl, 5% glycerol, 2 mM; conditions: protein: recombinant; tags: N-terminal double FLAG, HRV 3C site; label: 5'-Cy5 (fwd); blunt
T2 sequence: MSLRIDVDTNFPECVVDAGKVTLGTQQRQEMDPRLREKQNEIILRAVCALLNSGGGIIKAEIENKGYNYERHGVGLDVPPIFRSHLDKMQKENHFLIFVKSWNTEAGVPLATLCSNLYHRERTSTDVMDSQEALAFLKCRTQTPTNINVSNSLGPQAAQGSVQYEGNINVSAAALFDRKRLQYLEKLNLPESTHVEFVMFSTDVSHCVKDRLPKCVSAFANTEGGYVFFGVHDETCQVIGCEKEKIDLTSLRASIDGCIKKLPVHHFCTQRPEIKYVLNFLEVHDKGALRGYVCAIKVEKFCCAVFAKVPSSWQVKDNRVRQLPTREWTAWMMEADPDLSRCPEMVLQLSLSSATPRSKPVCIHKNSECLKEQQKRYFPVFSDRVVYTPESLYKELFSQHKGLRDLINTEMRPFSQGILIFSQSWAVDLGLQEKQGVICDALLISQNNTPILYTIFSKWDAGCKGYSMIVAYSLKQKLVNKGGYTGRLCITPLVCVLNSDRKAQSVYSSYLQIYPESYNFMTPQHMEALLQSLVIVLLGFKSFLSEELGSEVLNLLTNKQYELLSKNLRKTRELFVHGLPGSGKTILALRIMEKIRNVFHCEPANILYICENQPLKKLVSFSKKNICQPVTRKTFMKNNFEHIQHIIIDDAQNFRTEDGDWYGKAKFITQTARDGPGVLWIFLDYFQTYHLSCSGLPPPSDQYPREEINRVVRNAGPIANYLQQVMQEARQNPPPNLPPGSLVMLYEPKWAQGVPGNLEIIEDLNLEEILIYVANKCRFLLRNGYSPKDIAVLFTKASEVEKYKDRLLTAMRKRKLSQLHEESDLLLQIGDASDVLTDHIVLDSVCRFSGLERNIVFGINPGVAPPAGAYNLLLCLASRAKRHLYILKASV

SLFN5 full length [3] = molecular target: T2, SLFN5 full length; test: competition EMSA; with tRNASer, 20 nM each; 196 bp DNA preferred; FA: 2x buffer 100 mM HEPES pH 8.0, 100 mM NaCl mixed 1:1 with 100 nM (final) FAM ligand, 30 min on ice; EMSA: 25 mM HEPES pH 7.0, 60 mM NaCl, 5% glycerol, 2 mM; conditions: protein: recombinant; tags: N-terminal double FLAG, HRV 3C site; label: 5'-Cy5 (rev primer); blunt

B1: 60 dT (ssDNA)
DNA: TTTTTTTTTTTTTTTTTTTTTTTTTTTTTTTTTTTTTTTTTTTTTTTTTTTTTTTTTTTT
[1]; label: 5'-FAM
  Kd: 7.8 µM

B2: 60 bp DNA (60bp_A/T_GC) (dsDNA)
DNA 1: TTTTTTTTTTTTTTTTTTTTTTTTTTTTTTTTTTTTTTTTTTTTTTTTTGCTTTTTTTTT
DNA 2: AAAAAAAAAGCAAAAAAAAAAAAAAAAAAAAAAAAAAAAAAAAAAAAAAAAAAAAAAAAA
[1]; label: 5'-FAM (fwd), blunt
  Kd: 2.5 µM

## TTTTTTTTTTTTTTTTTTTTTTTTTTTTTT (ssDNA) [30 dT]
[1]; label: 5'-FAM
  Kd: 11 µM

B3: 50 bp DNA (dsDNA)
DNA 1: AATTGGTCGTAGCAAGCTCTAGCACCGCTTAAACGCACGTACGCGCTGTC
DNA 2: GACAGCGCGTACGTGCGTTTAAGCGGTGCTAGAGCTTGCTACGACCAATT
SLFN5 full length [2]
  binding result: binds

B4: 60 rU (ssRNA)
RNA: UUUUUUUUUGCUUUUUUUUUUUUUUUUUUUUUUUUUUUUUUUUUUUUUUUUUUUUUUUUU
[1]; label: 5'-FAM
  Kd: 3.6 µM

B5: tRNA(Ser) (structured_RNA)
RNA: GUAGUCGUGGCCGAGUGGUUAAGGCGAUGGACUUGAAAUCCAUUGUGGUUUCCCCGCGCAGGUUCGAAUCCUGCCGACUACGCCA
[1]; label: 5'-FAM, tRNA fold
  Kd: 4.3 µM

## UUUUUUUUUUUUUUUUUUUUUUUUUUUUUU (ssRNA) [30 rU]
[1]; label: 5'-FAM
  Kd: 5.1 µM

B6: 196 bp DNA (0N49) (dsDNA)
DNA 1: CTGGAGAATCCCGGTGCCGAGGCCGCTCAATTGGTCGTAGCAAGCTCTAGCACCGCTTAAACGCACGTACGCGCTGTCCCCCGCGTTTTAACCGCCAAGGGGATTACTCCCTAGTCTCCAGGCACGTGTCAGATATATACATCCTGTGCATGTATTGAACAGCGACCTTGCCGGTGCCAGTCGGATAGTGTTCCGA
DNA 2: TCGGAACACTATCCGACTGGCACCGGCAAGGTCGCTGTTCAATACATGCACAGGATGTATATATCTGACACGTGCCTGGAGACTAGGGAGTAATCCCCTTGGCGGTTAAAACGCGGGGGACAGCGCGTACGTGCGTTTAAGCGGTGCTAGAGCTTGCTACGACCAATTGAGCGGCCTCGGCACCGGGATTCTCCAG
SLFN5 full length [3]
  binding result: binds
